From patent publication US20210147534A1 (RECEPTA BIOPHARMA S A, published 2021) come the findings set out here.

No end group written: not given here.

This experiment addresses T1, recombinant mouse CD74 (mouse, UniProt P04441 56-279, limits assumed).
T1 construct: Bought (Abcam); also called recombinant CD74
T1 sequence (looked up): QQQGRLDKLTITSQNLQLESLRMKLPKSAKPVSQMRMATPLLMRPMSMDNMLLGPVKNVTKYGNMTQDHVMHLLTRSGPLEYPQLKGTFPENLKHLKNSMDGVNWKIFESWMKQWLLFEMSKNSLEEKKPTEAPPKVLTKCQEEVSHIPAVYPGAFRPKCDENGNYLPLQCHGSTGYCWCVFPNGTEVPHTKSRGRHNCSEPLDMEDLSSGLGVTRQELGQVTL
As to the kind of experiment: chemiluminescent dot-blotting, peptide on nitrocellulose, recombinant CD74 in solution. The method, then: Membranes were washed and incubated with primary mouse anti-CD74 or anti-MIF (both from Abcam, Cambridge, UK), washed and incubated with secondary anti-mouse IgG-HRP. Immunoreactivity was determined using the ECL Western Blotting Substrate (Millipore, Billerica, Mass.), and signal was detected in a trans-illuminator Uvitec, Cambridge, UK).

B1: Rb10A1 (peptide)
peptide: AARGETARATFAYWGQG-NH2
notes: Linear peptide; N-terminal Cys of Rb10 replaced by alanine; also called A1C
For B1, the binding result is listed as “no binding”.
